For assay [1], the target named is T1, recombinant cynomolgus MerTK extracellular domain (cynomolgus, UniProt Q12866 21-505 (human entry)).
T1 construct: also called cyno MerTK ECD; not shown: polyHis or TEVS/Thrombin/murine IgG2a-Fc tag
T1 chain: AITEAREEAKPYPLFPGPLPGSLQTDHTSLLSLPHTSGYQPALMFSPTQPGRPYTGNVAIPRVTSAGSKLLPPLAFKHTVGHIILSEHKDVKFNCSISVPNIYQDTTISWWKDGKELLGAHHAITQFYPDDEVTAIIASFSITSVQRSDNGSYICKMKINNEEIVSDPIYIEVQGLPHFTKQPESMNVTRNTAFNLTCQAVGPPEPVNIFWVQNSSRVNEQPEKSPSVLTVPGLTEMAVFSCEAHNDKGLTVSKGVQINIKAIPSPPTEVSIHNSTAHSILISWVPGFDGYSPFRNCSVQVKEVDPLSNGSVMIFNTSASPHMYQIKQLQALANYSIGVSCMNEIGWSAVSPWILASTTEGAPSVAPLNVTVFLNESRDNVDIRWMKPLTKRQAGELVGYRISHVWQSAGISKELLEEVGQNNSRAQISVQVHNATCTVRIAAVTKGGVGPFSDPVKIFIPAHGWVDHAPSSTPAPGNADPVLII
The assay is described as follows: SPR Carterra LSA, Ab immobilised. An outline of the steps: (§1)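 Surface plasmon resonance on a Carterra LSA measured affinity of immobilized antibodies for human, cynomolgus or mouse MerTK ectodomain diluted in HBS-TE with 0.5 mg/ml BSA. Analytes flowed over the full array, surfaces were regenerated with Protein A/G Elution Buffer plus 1M NaCl or 10 mM Glycine pH 2.5, and spots binding under 25 RU were discarded before kinetic fitting.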

Assay [2] has as its target T2, recombinant murine MerTK extracellular domain (mouse, UniProt Q60805 19-497).
T2 construct: also called Mouse MerTK; murine MerTK ECD; not shown: polyHis or TEVS/Thrombin/murine IgG2a-Fc tag
T2 sequence: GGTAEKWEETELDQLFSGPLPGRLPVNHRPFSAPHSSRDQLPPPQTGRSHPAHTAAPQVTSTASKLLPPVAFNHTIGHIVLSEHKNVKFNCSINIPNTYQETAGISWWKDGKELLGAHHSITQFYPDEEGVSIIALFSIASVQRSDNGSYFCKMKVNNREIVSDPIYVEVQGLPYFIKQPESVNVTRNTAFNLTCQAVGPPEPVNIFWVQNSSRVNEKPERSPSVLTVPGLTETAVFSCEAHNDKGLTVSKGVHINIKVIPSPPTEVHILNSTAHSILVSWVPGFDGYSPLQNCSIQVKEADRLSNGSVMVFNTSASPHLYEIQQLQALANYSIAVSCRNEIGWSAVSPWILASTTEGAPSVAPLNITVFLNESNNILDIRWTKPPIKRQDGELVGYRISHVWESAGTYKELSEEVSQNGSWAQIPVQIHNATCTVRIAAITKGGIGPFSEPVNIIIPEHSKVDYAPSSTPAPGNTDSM
The assay can be described thus: SPR Carterra LSA, Ab immobilised. An outline of the steps:
as §1

For assay [3], the target named is T2, recombinant murine MerTK extracellular …. The assay can be described thus: SPR Carterra LSA.

Positions count from the first letter of the chain named.

B1: MTK-229 (antibody, human IgG1, V domains shown)
VH: QVQLQQSGPELVKPGASVKISCKASGYEFSRSWMNWVKQRPGKGLEWIGRIYPGDGDTNYKGKLKGQATLTADKSSSTAYMQLSSLTFEDSAVYFCARGGGYYYDSRYEGFVYWGQGTVVTVSA
VL: QIVLTQSPAIMSASPGEEVTMTCSASSSVSYMHWYQQKSGTSPKRWIYDTSKLASGVSGRFSGSGSGTSYSLTISSMEAEDAATYYCQQWSSNPPITFGAGTKLELK
A word on the Kd: it is the constant that tells how readily two partners part at equilibrium. On to B1, for which the Kd in assay [1] was 52 nM.

B2: MTK-208 (antibody, human IgG1, V domains shown)
VH: QVQLQQPGAELVVPGASVRLSCKASGYTFINYWMHWVKQRPGQGLEWIGEIDPSDSYANYNQKFKDKSTLSLDKSSSTAYMQLSSLTSEDSAVYYCARCDYYGRLDYWGQGTTLTVSS
VL: QVVLTQSPAIMSASPGEKVTITCSASSSVSYMLWFQQKPGTSPKLWIYSTSNLASGVPARFSGSGSGTSYSLTISRLEAEDAATYYCQQRSSYPPITFGAGTKLELK
On to B2, for which, in assay [1], the Kd amounted to 34 nM. Further, the binding result in assay [2] is recorded as “no binding (tested: analyte up to 600 nM)”.

B3: MTK-219 (antibody, human IgG1, V domains shown)
VH: QVQLQQSGADLMKPGASVKLSCKATGNTFTGYWIEWVKQRPGHGLEWIGEILTGSGSTNYNERFKGKATFTADTSSNTAYMQLSSLTTEDSAIYYCAGSYFTNSWFPYWGQGSLVTVSA
VL: DIVLTQSPASLAVSLGQRATISCRASESVDSYGNSFMHWYQQKPGQPPKLLIYRAYTLESGIPARFSGSGSRTDFTLTINPVEADDVATYYCQQSNEDPRTFGGGTKLEIK
With B3, the Kd in assay [1] turned out to be 830 nM.

B4: MTK-222 (antibody, human IgG1, V domains shown)
VH: B3 VH with N27Y, T58S, R63K, T74S, Y80F, F101Y, T102S
VL: B3 VL with A9V, N34S, Y56S, T57S, A84T
As to B4, the Kd in assay [1] was 130 nM.

B5: MTK-209 (antibody, human IgG1, V domains shown)
VH: QVQLQQPGAELVKPGASVKVSCKASGYTFTNYWIHWVKQRPGQGLEWIGRIHPFDSEPNYNQKFKGKATLTVDKSSSTAYMHLTSLTSEDSAVYYCALASFAYWGQGTLVTVSA
VL: ETTVTQSPASLSMAMGEKATIRCITSTDIDDKMNWYQQKPGKPPKLLISAGNTLRPGVPSRFSSSGYGTDFVLTVENMLSEDVADYYCLQGGALPLTFGSGTKLEIK
As for B5, the Kd in assay [2] was determined as 460 nM. The “Ratio of KD for Mouse vs Human MerTK” value in assay [3] was determined as 35.4 ratio.

B6: MTK-206 (antibody, human IgG1, V domains shown)
VH: QVQLQQSGAELARPGASVKMSCKASGYTFTSYTMHWVKQRPGQGLEWIGYINPSSGYIKNSQKFKDKATLTADKSSSTAYMQLSSLTSEDSAVYYCARTVYGYYGSSPDYWGQGTTLTVSS
VL: DIQMTQSPSSLSASLGERVSLTCRASQDIGSNLNWLQQEPDGTIKRLIYATSSLESGVPKRFSGSRSGSDYSLTISSLESEDFVDYYCLQYDSSPWTFGGGTKLEIK
As for B6, in assay [1], the Kd was 3700 nM. The binding result in assay [2] is reported as “no binding (tested: analyte up to 600 nM)”.

B7: MTK-203 (antibody, human IgG1, V domains shown)
VH: QVQLQQPGAELVKPGASVKVSCKASGYTFTNYWMHWVKQRPGQGLEWIGRIHPFDTETNDNQKFKGKATLTVDKSSSTAYMQLSSLTSEDSAVYYCVIPANGGFAYWGQGTLVTVSA
VL: ETTVTQSPASLSVATGEKVTIRCITSTDIGDDMNWYQQKPGEPPKVLISEGNSLRPGVPSRFSSSGYGTDFVFTIENTLSEDVADYFCLQSDNLPLTFGSGTKLEIK
As to B7, the Kd in assay [2] was determined as 400 nM. The “Ratio of KD for Mouse vs Human MerTK” value in assay [3] came to 12.5 ratio.

B8: MTK-210 (antibody, human IgG1, V domains shown)
VH: QVQLQQSGPELVKPGASVKISCKASDYEFSRSWMNWVKQRPGKGLEWIGRIYPGDGDTNYNGKFKGKATLTADKSSNTAYMQLNSLTSEDSAVYFCARKGGYYYSISNYFDYWGQGTTLTVSS
VL: QIVLTQSPAIMSASPGVKVTMTCSASSSVSYMHWYQQKPGSSPRLLIYDTSNLASGVPVRFSGSGSGTSYSLTISRMEAEDAATYYCQQWSSYPPYTFGGGTKLEIK
As for B8, the Kd in assay [1] is 37 nM. Moreover, the binding result in assay [2] was “no binding (tested: analyte up to 600 nM)”.

B9: MTK-225 (antibody, human IgG1, V domains shown)
VH: EVQLQQSGPELVKPGASVKIFCKASGYTFTAYNMDWVKQSHGKSLEWIGDINPNNGGTIYNQKFKGKATLTVDKSSSTAYMELRSLTSEDTAVYYCARRRRYGNTYYWYFDVWGTGTTVTVSS
VL: DIQMTQSPASLSVSVGETVTITCRASENIYSSLAWYQQKQGKSPQLLVYAATNLADGVPSRFSGSGSGTQFYLKINGLQSEDFGSYYCQHFWGTSYTFGGGTKLEIK
B9: the Kd in assay [1] came out at 80 nM.

B10: MTK-227 (antibody, human IgG1, V domains shown)
VH: EVKLVESGGGLVQPGGSLSLSCAASGFTFTDNYMTWVRQPPGKALEWLGFSRNKANGYTTEYSASVKGRFTISRDSSQSILYLQMNALRAEDSGTYYCARFPPHYYAGGYFDVWGTGTTVTVSS
VL: DIQMTQSPASLSASVGETVTITCRASENIYSYLAWYQQKQGKSPQLLVYNAKTLAEGVPSRFSGSGSGTQFSLKINSLQPADFGSYYCQHYYRTPPTFGGGTKLEIK
Take B10: the Kd was found to be 78 nM in assay [1] and 8.3 nM in assay [2]. Moreover, the “Ratio of KD for Mouse vs Human MerTK” value in assay [3] is 0.08 ratio.

B11: MTK-221 (antibody, human IgG1, V domains shown)
VH: QVTLKESGPGMLQSSQTLSLTCSFSGFSLSTSGMGVSWIRQPSGKGLEWLAHIYWDDDKRYNTSLQSRLTISKDTSRNQVFLKITSVDTADTATYFCGRLGAYSAFPYYFDYWGQGTTLTVSS
VL: DIQMTQSPSSLSASLGGKVTITCKASQDIHKHIAWYQHKPGKGPRLLIHYTSTLQPGIPSRFSGSGSGRDYSFSISNLEPEDLATYYCLQYDNLWTFGGGTKLEIK
Turning to B11, in assay [1], the Kd worked out at 38 nM. The binding result in assay [2] is reported as “no binding (tested: analyte up to 600 nM)”.

B12: MTK-220 (antibody, V domains shown)
VH: EVQLVESGGGLVKPGGSLKLSCAASGFTFSDYGMHWVRQAPEKGLEWVAFISGGSGTIYYEDTVKGRFTISRDNAKNTLFLQMTSLRSEDTAMYYCTRGGNYFDYWGQGTTLTVSS
VL: NIMLTQSPSSLAVSAGEKVTMTCKSSQSVLYSSNQKNYLAWYQQKPGQSPKLLIYWASTRESGVPDRFTGSGSGTDFTLTISNVQAEDLAVYYCHQYFSSWTFGGGTKLEIK
Regarding B12, the Kd in assay [1] was 410 nM.

B13: MTK-202 (antibody, human IgG1, V domains shown)
VH: EVQLVESGGGLVKPGGSLKLSCAASGFTFSDFGMHWVRQVPEKGLEWVAFISGGSNTIYYTDTVKGRFTISRDNAKNTLFLQMTSLRSEDTAMYYCVRNGNSFAYWGQGTLVTVSA
VL: B12 VL with L4M, T22N, V84I, V91I, S99F
Take B13: the Kd in assay [1] is 160 nM.

B14: MTK-204 (antibody, human IgG1, V domains shown)
VH: B12 VH with F50Y, G53S, S55T, G56S, T97A, N101L, Y102L
VL: B12 VL with L4M, T22S, Y55Q, G74E, S82R, N83S
B14: the Kd in assay [1] was found to be 680 nM.

B15: MTK-215 (antibody, human IgG1, V domains shown)
VH: EVQLVESGGGLVKPGGSLKLSCAASGFIFSDYGMHWVRQAPEKGLEWVAYISSGSSTIYYGDTVKGRFTISRDNAKNTLFLQMTSLRSEDTAMYYCAKGGRYGAMDYWGHGTSVTVSS
VL: DIVLTQSPATLSVTPGDSVSLSCRASQSISNNLHWYQQKSHESPRLLIKNPSQSISGIPSRFGARGSGTDFTLIINSVETEDLGVYFCQQSNSWPFTFGSGTKLEIK
In the case of B15, the Kd in assay [1] amounted to 1600 nM.

B16: MTK-230 (antibody, human IgG1, V domains shown)
VH: EVQLQQSGPELVKPGASVRIPCKASGYTFSDYNMDWVKQSHGKSLEWIGNINPNIGGTIYSQKFKGKATLTVDKSSSTAYMELRSLTSEDTAVYYCARGDYGFASWGQGTLVTVSA
VL: DIVLTQSPASLTVSLGQRATISCRASRSVSTSGYSYMHWYQQKPGQPPKLLIYLASNLESGVPARFSGSRSGTDFTLNIHPVEEEDAATYYCQHSREYPFTFGSGTKLEIK
For the molecule B16, in assay [2], the Kd turned out to be 29 nM. In assay [3], the “Ratio of KD for Mouse vs Human MerTK” value is 3.5 ratio.

B17: MTK-223 (antibody, human IgG1, V domains shown)
VH: DVQLQESGPGLVKPSQSLSLTCSVTGYSITSGYYWNWIRQFPGNKLEWMGYISYDGTNNYNPSLKNRISITRDTSENQFFLKLNSVTTEDTATYFCVRGAGYWGQGTTLTVSS
VL: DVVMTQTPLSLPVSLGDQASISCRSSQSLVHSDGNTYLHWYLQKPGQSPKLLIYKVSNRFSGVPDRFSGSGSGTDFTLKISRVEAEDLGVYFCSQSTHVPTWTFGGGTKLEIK
Take B17: the Kd in assay [1] stood at 190 nM.

(Values after patent US20240294650A1 (Alector, published 2024).)
